Consider 71 molecules from patent US20250011363A1, “OPTIMIZED SHORTENED PEPTIDE THAT BINDS TO ACETYLCHOLINE RECEPTOR, AND USE THEREOF” (SKINMED CO., LTD., priority 2021, published 2025).

Experiment [1] has as its target acetylcholine receptor. The experiment is described as follows: SPR, receptor immobilized on CM5 chip, peptide 10 uM. In general terms: SPR reads the build-up and loss of mass on a sensor chip optically.
Experiment [2] concerns the target acetylcholine receptor. The experiment is described as follows: SPR, AchR on chip, peptide 10 uM.

In the experiment with acetylcholine receptor [1], KLLTRR [6mer-2-463] yielded a Binding affinity (RU) of 124 RU. Same read-out and setting: as for RGRCKK [6mer-2-451], the figure is 148 RU. Still for that read-out and setting: under RVQYKK [6mer-2-418] stands 121 RU; under RSRQKK [6mer-2-411], 121 RU. The same measure, in the same setting: as for RLQRRR [6mer-2-427], the figure is 147 RU; as for KGYRKK [6mer-2-405], 137 RU; as for RWVYKK [6mer-2-417], 151 RU.

Turning to KKNWPR [6mer-1-931], the Binding affinity (RU) with acetylcholine receptor [1] worked out at 35 RU. For RLVQKR [6mer-2-442], the Binding affinity (RU) in the experiment with acetylcholine receptor [1] was 139 RU. In the experiment with acetylcholine receptor [1], KRRRKR [6mer-2-409] showed a Binding affinity (RU) of 139 RU. As to KSQRKR [6mer-2-441], the Binding affinity (RU) in the experiment with acetylcholine receptor [1] was determined as 139 RU.

Take KVICRK [6mer-2-421]: the Binding affinity (RU) with acetylcholine receptor [1] came out at 124 RU.

With RRQYRK [6mer-2-420], the Binding affinity (RU) in the experiment with acetylcholine receptor [1] is 128 RU. For the molecule RSVQKK [6mer-2-454], the Binding affinity (RU) with acetylcholine receptor [1] turned out to be 133 RU.

Molecule RQRYRK [6mer-2-450] came in with a Binding affinity (RU) with acetylcholine receptor [1] of 123 RU. Take KQVSKR [6mer-2-407]: the Binding affinity (RU) in the experiment with acetylcholine receptor [1] stood at 122 RU. For the molecule RWFRRR [6mer-2-430], the Binding affinity (RU) with acetylcholine receptor [1] came to 139 RU. In turn, KSVTKR [6mer-2-456] returned a Binding affinity (RU) in the experiment with acetylcholine receptor [1] of 147 RU.

As to RSFRRR [6mer-2-448], the Binding affinity (RU) with acetylcholine receptor [1] is 128 RU.

In turn, KQIYRR [6mer-2-408] had a Binding affinity (RU) in the experiment with acetylcholine receptor [1] of 139 RU.

KSVCRR [6mer-2-461] gave a Binding affinity (RU) with acetylcholine receptor [1] of 149 RU. In the experiment with acetylcholine receptor [1], RSQCRK [6mer-2-460] came in with a Binding affinity (RU) of 139 RU. On the same count and under the same terms, under RSRYKK [6mer-2-419] stands 154 RU. The same measure, in the same setting: as for RLLCRK [6mer-2-438], the figure is 131 RU. On the same count and under the same terms, under RLQYRK [6mer-2-423] stands 154 RU.

RQYCRR [6mer-2-443]: the Binding affinity (RU) with acetylcholine receptor [1] was determined as 122 RU. Consider RWRQRK [6mer-2-429], for which the Binding affinity (RU) in the experiment with acetylcholine receptor [1] came to 123 RU.

The molecule RQLQKK [6mer-2-446] yielded a Binding affinity (RU) with acetylcholine receptor [1] of 153 RU. The molecule KGRCKK [6mer-2-415] displayed a Binding affinity (RU) in the experiment with acetylcholine receptor [1] of 149 RU. Consider KLFSRK [6mer-2-459], for which the Binding affinity (RU) in the experiment with acetylcholine receptor [1] was 139 RU. With RWVYKR [6mer-2-435], the Binding affinity (RU) in the experiment with acetylcholine receptor [1] is 154 RU. The same measure, in the same setting: under RWYSKR [6mer-2-455] stands 135 RU; under RGRCRR [6mer-2-449], 154 RU. Same read-out and setting: as for RLITRR [6mer-2-422], the figure is 154 RU; as for KKESNK [6mer-1-930], 43 RU; as for KRFLKK [6mer-2-412], 139 RU. Same read-out and setting: as for RLILKR [6mer-2-413], the figure is 136 RU; as for RRFQRR [6mer-2-458], 122 RU; as for KQVCKK [6mer-2-437], 121 RU. As to KVVRKR [6mer-2-432], in the experiment with acetylcholine receptor [1], the Binding affinity (RU) was determined as 148 RU.

Regarding KQICKR [6mer-2-462], the Binding affinity (RU) with acetylcholine receptor [1] worked out at 145 RU. Same read-out and setting: as for RWRLRR [6mer-2-416], the figure is 131 RU. Regarding KGVLRK [6mer-2-403], the Binding affinity (RU) with acetylcholine receptor [1] came out at 123 RU. KGLYKR [6mer-2-452] yielded a Binding affinity (RU) with acetylcholine receptor [1] of 146 RU. Still for that read-out and setting: under RQRLKK [6mer-2-444] stands 141 RU. In the experiment with acetylcholine receptor [1], KGQRRK [6mer-2-426] returned a Binding affinity (RU) of 141 RU.

RVLSKR [6mer-2-404] registered a Binding affinity (RU) in the experiment with acetylcholine receptor [1] of 121 RU. Take KLQTKK [6mer-2-425]: the Binding affinity (RU) with acetylcholine receptor [1] amounted to 145 RU.

Take KSFRKK [6mer-2-464]: the Binding affinity (RU) with acetylcholine receptor [1] came to 135 RU.

RLLTRR [6mer-2-466] yielded a Binding affinity (RU) with acetylcholine receptor [1] of 142 RU.

Take RVIRRK [6mer-2-434]: the Binding affinity (RU) with acetylcholine receptor [1] is 154 RU.

As for KGVSKR [6mer-2-465], in the experiment with acetylcholine receptor [1], the Binding affinity (RU) came to 122 RU. Take RRFTK [5mer-326]: the Binding affinity (RU) in the experiment with acetylcholine receptor [2] was 68 RU. KVLYKR [6mer-2-436] displayed a Binding affinity (RU) with acetylcholine receptor [1] of 148 RU. Same read-out and setting: under KRFRKK [6mer-2-410] stands 153 RU. Still for that read-out and setting: as for KWFSKR [6mer-2-439], the figure is 153 RU. RVYTKK [6mer-2-447] came in with a Binding affinity (RU) with acetylcholine receptor [1] of 139 RU. As to KQYSRR [6mer-2-467], the Binding affinity (RU) in the experiment with acetylcholine receptor [1] stood at 142 RU. Take KGYLR [5mer-27]: the Binding affinity (RU) in the experiment with acetylcholine receptor [2] came to 67 RU. For the molecule RWIQKR [6mer-2-433], in the experiment with acetylcholine receptor [1], the Binding affinity (RU) came out at 139 RU. Same read-out and setting: as for RLYCKK [6mer-2-424], the figure is 139 RU; as for RLVRKK [6mer-2-453], 141 RU; as for KWRQKK [6mer-2-414], 135 RU. The same measure, in the same setting: as for KRYSRR [6mer-2-402], the figure is 145 RU; as for RRVYKR [6mer-2-457], 146 RU. KGIYRR [6mer-2-406]: the Binding affinity (RU) in the experiment with acetylcholine receptor [1] was 139 RU. Same read-out and setting: under KLILKR [6mer-2-431] stands 135 RU. In the experiment with acetylcholine receptor [2], RQQQR [5mer-26] returned a Binding affinity (RU) of 65 RU. KVFLKK [6mer-2-428] came in with a Binding affinity (RU) in the experiment with acetylcholine receptor [1] of 142 RU. The molecule KQLSKK [6mer-2-440] came in with a Binding affinity (RU) in the experiment with acetylcholine receptor [1] of 153 RU. Take RLVCKR [6mer-2-445]: in the experiment with acetylcholine receptor [1], the Binding affinity (RU) worked out at 145 RU.
